Read-outs that look alike come from different tables or passages of the source.

For one test, the target named is T1, 4H3364-bN.
T1 chain: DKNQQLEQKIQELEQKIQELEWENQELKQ
The test can be described thus: two-hybrid library CCNG1.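 Note: natural log of median RNA to DNA barcode read ratio; higher means stronger binding.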

In a further test the target is T2, 4H3381-bN.
T2 chain: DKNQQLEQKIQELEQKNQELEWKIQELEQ
The test can be described thus: two-hybrid library CCNG1.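 Note: natural log of median RNA to DNA barcode read ratio; higher means stronger binding.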

In another test the target is T3, 4H949-bN.
T3 chain: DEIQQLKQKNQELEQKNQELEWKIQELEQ
Put plainly: two-hybrid library CCNG1.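 Note: natural log of median RNA to DNA barcode read ratio; higher means stronger binding.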

Another test deals with T4, 4H349-bN.
T4 chain: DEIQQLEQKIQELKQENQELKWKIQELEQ
The test can be described thus: two-hybrid library CCNG1.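 Note: natural log of median RNA to DNA barcode read ratio; higher means stronger binding.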

The target in another test is T5, 4H796-bN.
T5 chain: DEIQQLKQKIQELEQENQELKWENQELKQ
The test can be described thus: two-hybrid library CCNG1.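 Note: natural log of median RNA to DNA barcode read ratio; higher means stronger binding.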

A further test concerns the target T6, 4H56-bN.
T6 chain: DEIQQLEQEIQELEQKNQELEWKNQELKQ
The test can be described thus: two-hybrid library CCNG1.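 Note: natural log of median RNA to DNA barcode read ratio; higher means stronger binding.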

In a further test the target is T7, 4H730-bN.
T7 chain: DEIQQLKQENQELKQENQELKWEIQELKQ
The test can be described thus: two-hybrid library CCNG1.

For a further test, the target named is T8, 4H3041-bN.
T8 chain: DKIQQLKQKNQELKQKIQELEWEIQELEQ
The test can be described thus: two-hybrid library CCNG1.

The next test concerns the target T9, 4H2931-bN.
T9 chain: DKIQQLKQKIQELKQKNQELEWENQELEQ
Put plainly: two-hybrid library CCNG1.

The next test concerns the target T10, 4H932-bN.
T10 chain: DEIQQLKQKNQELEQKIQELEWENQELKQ
Put plainly: two-hybrid library CCNG1.

For the next test, the target named is T11, 4H3297-bN.
T11 chain: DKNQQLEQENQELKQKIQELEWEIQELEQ
Put plainly: two-hybrid library CCNG1.

In the next test the target is T12, P6-AA-12HAA-H.
T12 chain: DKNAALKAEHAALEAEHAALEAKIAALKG
Put plainly: two-hybrid library CCmax. The note with it: mean of both orientations.

Another test deals with T13, P6-AA-12HAA-S.
T13 chain: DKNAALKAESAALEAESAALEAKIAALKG
Put plainly: two-hybrid library CCmax.

Another test deals with T14, P6-AA-1HAA-N.
T14 chain: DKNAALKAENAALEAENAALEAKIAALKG
Put plainly: two-hybrid library CCmax. The settings on record: mean of both orientations.

The target of another test is T15, P6-AA-12HAA-V.
T15 chain: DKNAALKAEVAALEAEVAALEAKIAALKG
Put plainly: two-hybrid library CCmax. The settings on record: mean of both orientations.

For the next test, the target named is T16, P6-AA-12HAA-L.
T16 chain: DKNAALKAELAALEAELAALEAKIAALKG
Put plainly: two-hybrid library CCmax. The settings on record: mean of both orientations.

Another test has as its target T17, P6-AA-12HAA-K.
T17 chain: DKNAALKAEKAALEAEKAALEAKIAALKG
Put plainly: two-hybrid library CCmax. The settings on record: mean of both orientations.

Another test has as its target T18, P6-AA-12HAA-T.
T18 chain: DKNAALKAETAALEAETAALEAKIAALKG
Put plainly: two-hybrid library CCmax. The settings on record: mean of both orientations.

The target in another test is T19, P6-AA-12HAA-E.
T19 chain: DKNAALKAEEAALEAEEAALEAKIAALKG
Put plainly: two-hybrid library CCmax. The note with it: mean of both orientations.

The target of the next test is T20, P6-AA-12HAA-R.
T20 chain: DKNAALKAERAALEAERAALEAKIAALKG
The test can be described thus: two-hybrid library CCmax. The settings on record: mean of both orientations.

Another test has as its target T21, P6-AA-12HAA-Y.
T21 chain: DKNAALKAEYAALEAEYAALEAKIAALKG
Put plainly: two-hybrid library CCmax.

In a further test the target is T22, P6-AA-12HAA-D.
T22 chain: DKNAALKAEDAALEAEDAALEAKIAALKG
The test can be described thus: two-hybrid library CCmax. The settings on record: mean of both orientations.

B1: 4H2931-bN (peptide)
chain: DKIQQLKQKIQELKQKNQELEWENQELEQ
As to B1, the interaction score with 4H3364-bN was -0.721; in the test with 4H3381-bN, -1.1; with 4H949-bN, -0.75; with 4H349-bN, -1.08; with 4H796-bN, -1.66; in the test with 4H56-bN, 0.0366. For the same molecule, the interaction score was -1.27 in the test with 4H730-bN; -0.593 in the test with 4H3041-bN; -0.656 with 4H2931-bN; -0.619 in the test with 4H932-bN; -0.835 with 4H3297-bN.

B2: P5-AA-12HAA-T (peptide)
chain: DENAALEAKTAALKAKTAALKAEIAALEG
On to B2, for which the interaction score with P6-AA-12HAA-H is -1.12; with P6-AA-12HAA-S (mean of both orientations) it was -1.61; in the test with P6-AA-1HAA-N, -1.49; with P6-AA-12HAA-V, 1.5; with P6-AA-12HAA-L it was 1.25; with P6-AA-12HAA-K it was -1.33. Moreover, the interaction score in the test with P6-AA-12HAA-T was -1.23; in the test with P6-AA-12HAA-E, -1.36; with P6-AA-12HAA-R, -1.74; in the test with P6-AA-12HAA-Y (mean of both orientations), 0.46; with P6-AA-12HAA-D, -2.09.

B3: P5-AA-12HAA-K (peptide)
chain: DENAALEAKKAALKAKKAALKAEIAALEG
On to B3, for which the interaction score with P6-AA-12HAA-H was -1.46; in the test with P6-AA-12HAA-S it was -2.76; with P6-AA-1HAA-N, -1.37; with P6-AA-12HAA-V it was 2.22; with P6-AA-12HAA-L it was 1.03; with P6-AA-12HAA-K, -1.5. The interaction score with P6-AA-12HAA-T is -0.798; with P6-AA-12HAA-E, -1.48; with P6-AA-12HAA-R it was -1.57; with P6-AA-12HAA-Y (mean of both orientations) it was -1.01; in the test with P6-AA-12HAA-D, -1.9.

B4: P5-AA-12HAA-R (peptide)
chain: DENAALEAKRAALKAKRAALKAEIAALEG
With B4, the interaction score in the test with P6-AA-12HAA-H was -1.83; with P6-AA-12HAA-S (mean of both orientations) it was -1.83; with P6-AA-1HAA-N, 0.341; with P6-AA-12HAA-V it was 2.1; with P6-AA-12HAA-L, 1.4; in the test with P6-AA-12HAA-K it was -1.69. The interaction score is -0.88 in the test with P6-AA-12HAA-T; -1.43 with P6-AA-12HAA-E; -1.5 in the test with P6-AA-12HAA-R; -1.07 with P6-AA-12HAA-Y (mean of both orientations); -1.88 with P6-AA-12HAA-D.

B5: P5-AA-12HAA-L (peptide)
chain: DENAALEAKLAALKAKLAALKAEIAALEG
As to B5, the interaction score was -0.352 with P6-AA-12HAA-H; -0.666 in the test with P6-AA-12HAA-S (mean of both orientations); -0.665 with P6-AA-1HAA-N; 2.39 in the test with P6-AA-12HAA-V; 1.74 with P6-AA-12HAA-L; 0.645 with P6-AA-12HAA-K. Further, the interaction score in the test with P6-AA-12HAA-T is 1.66; with P6-AA-12HAA-E, 0.451; with P6-AA-12HAA-R, -0.243; with P6-AA-12HAA-Y it was 2.26; with P6-AA-12HAA-D, -1.57.

The values above are taken from article PMC10397247.
